# Key:
# [1] = target: AAV2 capsid (adeno-associated virus serotype 2) (UniProt P03135); test: bind-and-elute chromatography, pure AAV2; bound at pH 7.0, eluted with PBS pH 2.0; ELISA
# [2] = target: AAV9 capsid (adeno-associated virus serotype 9); test: bind-and-elute chromatography, pure AAV9; bound at pH 7.0, eluted with PBS pH 2.0; ELISA
# [3] = target: AAV2 capsid (adeno-associated virus serotype 2) (UniProt P03135); test: bind-and-elute chromatography, pure AAV2; bound at pH 7.0, eluted with 0.2 M MgCl2 in citrate pH 2.2; ELISA
# [4] = target: AAV9 capsid (adeno-associated virus serotype 9); test: bind-and-elute chromatography, pure AAV9; bound at pH 7.0, eluted with 0.2 M MgCl2 in citrate pH 2.2; ELISA
# Chain of AAV2 capsid (adeno-associated virus serotype 2) (P03135 whole entry, chain 1 of 3): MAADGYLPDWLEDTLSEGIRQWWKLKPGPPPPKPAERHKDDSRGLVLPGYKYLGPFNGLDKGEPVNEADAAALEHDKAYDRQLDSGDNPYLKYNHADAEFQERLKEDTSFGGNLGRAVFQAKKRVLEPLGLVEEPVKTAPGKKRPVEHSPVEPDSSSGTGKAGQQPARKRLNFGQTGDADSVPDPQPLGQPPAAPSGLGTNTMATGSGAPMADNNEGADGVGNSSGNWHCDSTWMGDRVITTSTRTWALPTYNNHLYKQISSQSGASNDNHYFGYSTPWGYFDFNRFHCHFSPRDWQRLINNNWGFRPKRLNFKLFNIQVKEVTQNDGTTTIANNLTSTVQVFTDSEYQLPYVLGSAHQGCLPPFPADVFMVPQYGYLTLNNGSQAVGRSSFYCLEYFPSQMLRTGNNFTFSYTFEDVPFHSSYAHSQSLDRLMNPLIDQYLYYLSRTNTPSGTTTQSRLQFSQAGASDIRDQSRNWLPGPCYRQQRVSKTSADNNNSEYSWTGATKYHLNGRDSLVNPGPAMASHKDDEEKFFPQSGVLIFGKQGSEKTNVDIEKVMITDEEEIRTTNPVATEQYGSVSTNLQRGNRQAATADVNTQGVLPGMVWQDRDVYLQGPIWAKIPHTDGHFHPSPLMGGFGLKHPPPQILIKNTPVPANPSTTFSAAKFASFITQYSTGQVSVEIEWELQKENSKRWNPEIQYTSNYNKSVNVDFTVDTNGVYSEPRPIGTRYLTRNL
# Chain of AAV2 capsid (adeno-associated virus serotype 2) (P03135 139-735, tags left off, chain 2 of 3): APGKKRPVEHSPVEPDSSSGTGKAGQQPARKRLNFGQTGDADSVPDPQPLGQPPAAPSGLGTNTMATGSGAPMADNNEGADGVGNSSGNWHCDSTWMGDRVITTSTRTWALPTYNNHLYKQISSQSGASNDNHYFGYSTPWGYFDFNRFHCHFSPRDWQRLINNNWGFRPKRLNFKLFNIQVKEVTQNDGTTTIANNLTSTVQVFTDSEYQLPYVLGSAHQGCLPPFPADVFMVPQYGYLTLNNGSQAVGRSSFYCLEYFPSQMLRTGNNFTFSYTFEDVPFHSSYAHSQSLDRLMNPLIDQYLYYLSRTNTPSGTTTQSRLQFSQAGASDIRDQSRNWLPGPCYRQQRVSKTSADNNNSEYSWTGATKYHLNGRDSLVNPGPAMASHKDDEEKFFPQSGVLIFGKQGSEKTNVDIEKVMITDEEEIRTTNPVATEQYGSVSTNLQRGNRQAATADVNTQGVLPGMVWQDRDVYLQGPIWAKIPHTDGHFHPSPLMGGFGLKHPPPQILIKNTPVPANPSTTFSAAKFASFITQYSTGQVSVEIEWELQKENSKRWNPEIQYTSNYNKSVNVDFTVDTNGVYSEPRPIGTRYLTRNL
# Chain of AAV2 capsid (adeno-associated virus serotype 2) (P03135 203-735, chain 3 of 3): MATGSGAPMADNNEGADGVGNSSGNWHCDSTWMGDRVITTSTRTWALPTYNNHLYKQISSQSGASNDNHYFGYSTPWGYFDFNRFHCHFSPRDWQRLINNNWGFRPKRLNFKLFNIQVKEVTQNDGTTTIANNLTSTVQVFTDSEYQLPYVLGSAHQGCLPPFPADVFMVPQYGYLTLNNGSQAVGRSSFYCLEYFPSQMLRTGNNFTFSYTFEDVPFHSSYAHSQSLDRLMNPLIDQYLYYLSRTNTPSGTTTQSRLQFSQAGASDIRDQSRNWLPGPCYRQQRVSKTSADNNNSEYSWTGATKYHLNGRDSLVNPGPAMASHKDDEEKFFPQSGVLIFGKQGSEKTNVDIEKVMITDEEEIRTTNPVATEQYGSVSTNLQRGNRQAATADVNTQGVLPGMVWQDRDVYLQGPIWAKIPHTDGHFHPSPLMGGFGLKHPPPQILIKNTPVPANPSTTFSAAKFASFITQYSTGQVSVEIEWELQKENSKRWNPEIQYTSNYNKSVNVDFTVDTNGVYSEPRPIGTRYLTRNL
Substance,yield (AAV titer in elution fraction vs. load) [1],yield (AAV titer in elution fraction vs. load) [2],yield (AAV titer in elution fraction vs. load) [3],yield (AAV titer in elution fraction vs. load) [4]
AVB Sepharose HP resin (VHH),45.8%,10.6%,–,–
POROS CaptureSelect AAVX Affinity resin (VHH),–,–,63.4%,25.6%

# Reference: patent US20260226503A1
